Measurements: the supplement of paper PMC12042874
± gives the uncertainty stated by the source.

Experiment: amyloid nucleation score (Sup35N fusion, yeast selection) (log enrichment); library NNK1; higher = more nucleation; inactive = no reads after selection
How it was run: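 Sup35N was fused to peptides of 20 random codons and expressed in psi-negative yeast, which were induced with 100 μM copper sulfate for 24 hours and then grown on medium lacking adenine and uracil for 7 days at 30°C. Plasmid inserts from input and output were sequenced on Illumina. The nucleation score is the DiMSum log enrichment of output over input reads, centred on the mode score of non-aggregating sequences. Sequences with under 100 input reads were left out, and random libraries had three technical output replicates.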

| Substance | amyloid nucleation score |
| --- | --- |
| LWLRSLIVYYNSFVDMGGCA | 0.549 ± 0.3 |
| AEHNYVRRELAGEPNLV | 3.11 ± 0.095 |
| GDCTLVMLINE | 0.011 ± 0.28 |
| DCGAWGHTLVSWSKYLGKSF | 3.64 ± 0.092 |
| NRRVCEVR | -0.148 ± 1.1 |
| DTLIFVLREVTLLNDAGVSS | 0.646 ± 0.42 |
| MTSAGSAWVYSYFYLGLIRK | -0.143 ± 0.53 |
| VFSIIRPGMASSLHGQVQIA | 1.28 ± 0.69 |
| YMASDEVNI | -0.232 ± 0.26 |
| SGTRELALGRFHTCCNQRGK | 0.442 ± 0.27 |
| KIIPRRRKSFMLNTFKYPHD | 1.62 ± 0.52 |
| LGPNFGTKFNMGCY | -0.304 ± 0.24 |
| CRPVGSTVVSVDNGTS | -0.188 ± 0.37 |
| VWTSWDGRSLIAEWVCYLE | 6.232 ± 0.048 |
| TFSYILDWFEVSLTHRGALI | 0.192 ± 0.41 |
| KNAVSSGRSGKITRR | 0.231 ± 1.4 |
| PSALGMVNGYIRVIYKRR | 0.359 ± 0.53 |
| YVMDYSD | 0.096 ± 0.61 |
| SLYVKWSQILLPLVLYVWYY | 0.232 ± 0.45 |
| IYNFSKYPVFGKTRALGFNF | -0.395 ± 0.67 |
| KYFSSNSKYIYDQLIVPSRT | -0.42 ± 1.7 |
| SPRYQSVWEFVSFQDCTSRW | 0.118 ± 1.2 |
| IGFEIHFMYALE | 0.355 ± 1 |
| LACTSASSVSRESFMYSQMS | 2.78 ± 0.16 |
| LWCCGGAFHSTDLGSAGLIM | 0.372 ± 1.4 |
| QNDTYLI | 0.022 ± 1.1 |

| Substance | amyloid nucleation score |
| --- | --- |
| SINHNGPDQLKGVPFSCSCV | inactive |
| VMLTPRDLGLVPIGLDHVRG | -0.236 ± 0.38 |
| KTPLYLPYLYFSIRLMCYWY | -0.47 ± 0.21 |
| VTSSWNSDAFTWFYNDSWCL | inactive |
| VHNTRYSHVPNKKMRSVIRK | 1.44 ± 0.42 |
| LCIWYICRT | 3.2 ± 0.16 |
| SFFWVYHRYSMPRSLCVM | inactive |
| YATGDCDVLMYRLGMNKKSS | 0.488 ± 0.45 |
| MFAWLDDLFRY | -0.3 ± 0.38 |
| HSVYL | 1.24 ± 0.3 |
| DVRRYSGLNRAMKLRWGSCA | 0.193 ± 0.79 |
| TGPDSISAYQHLFNCS | 1.64 ± 0.54 |
| ILRTFVSSCVDVGTYSTTKC | -1.52 ± 2.4 |
| HRSCCNKRRRERNFSDWTGV | 0.542 ± 0.77 |
| LRRGKLDLDHPLVNKWRKKG | -0.005 ± 0.67 |
| YCNGNRKVVEVDFDWILGGG | -0.33 ± 1.1 |
| LCSNYQCLTTVYQLVVVAEW | 3.54 ± 0.13 |
| ESTLNRVRVTALETVQQCLS | 0.275 ± 1.2 |
| SGGSLVFVCYGRNF | -1.35 ± 1.1 |
| YWIIKVRNRLVPRFFKYKGS | -0.491 ± 0.39 |
| TFQHCLRYWPNHSRLNSCRL | 0.155 ± 0.25 |
| FRNSLSYIVLSCLAMFFNDG | 0.967 ± 0.32 |
| RLRDIG | -0.684 ± 1.2 |
| NYLTHG | 0.311 ± 0.37 |
| EASLAPYEESELA | 1.76 ± 0.54 |
| INFARPVTILTYATFSVFGN | 4.9 ± 0.082 |

| Substance | amyloid nucleation score |
| --- | --- |
| TSTSIGRVQCLYDSWRRTAW | 0.73 ± 0.62 |
| NSYLSND | inactive |
| KVLELYRILYRREHNFWVEV | -0.317 ± 1.6 |
| CRATTP | 0.282 ± 0.49 |
| VVVFVSE | 0.997 ± 0.65 |
| SNEVYWQ | 1.25 ± 0.3 |
| LTEIVYTVGAEGTLWRSGAA | 0.298 ± 0.45 |
| VSNNYRDV | 0.807 ± 0.72 |
| KDVFY | -0.294 ± 0.5 |
| TNWAVKGWAVECRRHSGPNT | 1.45 ± 0.79 |
| IEQSNMVTARRLELLRSAVS | 0.339 ± 0.54 |
| ASIKTRTSFRVKVWYWVRNL | -0.598 ± 1.7 |
| SRYYASYFGIG | 0.034 ± 0.97 |
| VGRTNFYCYWFPCRSLDLLS | 5.8 ± 0.046 |
| ISLVLDFGDVYIVS | 6.203 ± 0.048 |
| ENVSVIRFQRRYRSCPDHGL | 0.04 ± 0.46 |
| ENKLNSPPWMLSLFTFLIVV | -0.242 ± 0.66 |
| TFIVQPFLTENPIASRFESA | 0.063 ± 0.38 |
| ANSSLLEFHTYDWDLYSACL | -1.06 ± 1.5 |
| LAGQVVRRTKTLWHAPAHPY | 0.374 ± 0.36 |
| DKNML | 1.44 ± 0.54 |
| LVGMCNHTYDS | 0.998 ± 0.66 |
| YGGLGYSLIGCYADLDGVIL | 1.47 ± 0.39 |
| KLRSGCLDYIVIDLWTF | -0.439 ± 0.39 |
| ETTRNKAMNTFMLPFSQSCK | 0.39 ± 0.56 |
| DASIIPYMNMFIMLTSLA | -0.889 ± 1.7 |

| Substance | amyloid nucleation score |
| --- | --- |
| IGRMSYWGCRTLNNSPCGKF | -1.22 ± 1.7 |
| FRVLNCVSYVFFQRHFRRCG | -0.974 ± 0.88 |
| INNHKIDQTML | -0.541 ± 0.84 |
| AASVSCNLQQKAKRVAFFLM | 0.726 ± 1.1 |
| LRARVGGVEFVYSVQRRLKP | -0.167 ± 0.62 |
| MSFQY | -2.11 ± 1.9 |
| FKRRKSFAHCRFAGVVRRWW | -0.581 ± 1.2 |
| YNYREWFSLIYFCIWDITWS | -1.01 ± 0.41 |
| MFSVFNRKRN | -0.354 ± 0.26 |
| CNCAGDLYAVRLYDGGCSSL | -0.006 ± 0.46 |
| HFKAYAFLDPFPLAPKL | 0.463 ± 0.64 |
| LKCLFLIAIFYIINCCSNLS | inactive |
| IGDTI | 0.302 ± 0.33 |
| GVATPPLRANSLEG | inactive |
| TNRVTGSLWDEVWSDPGPEC | -1.28 ± 0.8 |
| HTKDSGSVARCVVSNLSCNT | 1.09 ± 0.48 |
| WHWVAEWSMRTYSGLSIECY | inactive |
| FNVAAVVGWMKRLIDRSRNT | 1.3 ± 0.88 |
| GGIRRHTHGI | -0.746 ± 1.4 |
| VLRWYEDNPFC | 0.291 ± 0.32 |
| NDTFSYCSTSGDRFGT | 1.4 ± 0.24 |
| AVSLRWCTGINGADKSCAYQ | 1.19 ± 0.43 |
| FEGILIKFCFGAWESDKVTM | 1.36 ± 0.59 |
| IWVSGWNYVGRVVVEYQRLS | 0.444 ± 1.4 |
| VLSVGQESTMISESGFNTEN | -0.001 ± 0.55 |
| YGINAVFLLIDLDERITDYL | 0.105 ± 0.29 |

| Substance | amyloid nucleation score |
| --- | --- |
| VDDHDPKIGSMLPSIPNGVQ | -0.571 ± 0.42 |
| DSMKMIILVDVGRNHGLGHR | 3.32 ± 0.16 |
| GSELCGVGARSQDSRIAGRV | -0.282 ± 0.49 |
| WVLGGEFPYKRGGIAASLVL | -0.327 ± 0.84 |
| ARVSRSFVSRAANIHGNCRR | -0.029 ± 1.1 |
| FNVCLSKESVNLGRD | 0.486 ± 0.39 |
| RSTYVCKIRVRMIYVDVKCS | 0.596 ± 0.46 |
| CIYWALGRAMRLPSGTGARG | 0.099 ± 0.95 |
| MPCNVGMGWCRVVNWWGLYG | 0.604 ± 0.44 |
| QASIYCIIRE | 0.68 ± 0.43 |
| AVYDLCD | 0.816 ± 0.74 |
| CVIDRWGDIYSNHEGNRSLL | -0.025 ± 0.32 |
| INYGMRCYEE | -0.427 ± 1.2 |
| YRLVP | -0.186 ± 0.46 |
| KLTHVNDLLTMVVNVSRAQG | -0.004 ± 1.4 |
| RYTRSGLIDMFTNSSTDAHS | 0.115 ± 0.43 |
| DVLLPSLTEVAINFSSVTLK | -0.242 ± 0.41 |
| QVHIERDVERPYMFLGTAWG | -0.285 ± 0.34 |
| EKIQINQKG | 1.04 ± 0.66 |
| EVCVLRTLNRKNFDEPDNCI | 0.913 ± 0.56 |
| YSSSRRDCRRPGTMYRPLPQ | -0.547 ± 0.55 |
| SSFLFSFWGAIGSIKSTFFW | -0.054 ± 0.24 |
| VARYSDRSNTEAYRVRFLGI | 1.28 ± 0.23 |
